Target: the molecule itself
Test: SEC; gel filtration, Superdex 200 10/300 GL, 25 mM Tris-Cl pH 8.0, 150 mM NaCl, 0.5 mL/min

B1: Mesaconyl-CoA C1-C4 CoA transferase (MCT) from Roseiflexus castenholzii (enzyme)
chain: MNGILSGMRIVEGSAFVAAPLGGMTLAQLGADVIRFDPIGGGLDYKRWPVTLDGKHSLFWAGLNKGKRSIAIDIRHPRGQELLTQLICAPGDEAGLFITNFPARGWLSYEALKAHRADLIMVNLLGRRDGGSEVDYTVNPQLGLPFMTGPFTSPEVVNHVLPAWDIVTGQMIALGLLAAERHRRRTGEGQLVKLALKDVGLAMIGHLGMIAEVMINDADRPKQGNYLYGAFGRDFETLDGKRVMVVGLTDLQWKALGKATGLTDAFNALGARLGLDMNDEGNRFRARREIAALLEPWFHARTFAEVRRVFEEHRVTWGPYRTVREAIAQDPDCSTENPMFTMVEQPGIGTYLMPASPLDFSRMPRLPAQRAPRLGEHTDEILLEVLGLSDGEVGKLHDEGIVAGPEEE
- stoichiometry N: 2

From PMC9196870, “Crystal Structure of an Intramolecular Mesaconyl-Coenzyme A Transferase From the 3-Hydroxypropionic Acid Cycle of Roseiflexus castenholzii” (Frontiers in Microbiology, 2022)
